{"source": "paper PMC4607269", "about": "(Cell, 2015)"}
{"biological_target": "His-xBuGZ (Xenopus, UniProt Q7ZXV8 1-452)", "experiment": "incorporation into His-xBuGZ droplets"}
{"binder": "YFP-tagged xBuGZ (Xenopus BuGZ) (natural protein) not shown", "binding result": "binds"}
{"binder": "GFP-xBuGZ-C (domain or fragment, Xenopus, UniProt Q7ZXV8 376-452, looked up) GAMMAPRPGLPPQQHGMRHPLPPHGQYGAPLQGMAGYHPGTMPPFGQGPPMVPPFQGGPPRPLMGIRPPVMSQGGRY", "binding result": "binds"}
{"binder": "GFP-xBuGZ-A (domain or fragment, Xenopus, UniProt Q7ZXV8 111-187, looked up) NQDDSDYDDDDDTAPSTSFQQMQTQQAFMPTMGQPGIPGLPGAPGMPPGITSLMPAVPPLISGIPHVMAGMHPHGMM", "binding result": "binds"}
{"binder": "GFP-xBuGZ-B (domain or fragment, Xenopus, UniProt Q7ZXV8 258-334, looked up) SAGQAQAHISGPVGTDFKPLNNIPATTAEHPKPTFPAYTQSTMSTTSTTNSTASKPSTSITSKPATLTTTSATSKLV", "binding result": "binds"}
